For three substances, Kd results are on record in publication PMC4578157.

This test has as its target Duffy antigen receptor for chemokines (DARC) (human) (UniProt Q16570). Put plainly: SPR.
Regarding “HlgA (from UniProt P0A074 30-309) (natural protein)”, the Kd turned out to be 29.2 nM. The value for “LukE (from UniProt O54081 29-314) (natural protein)” was 56.4 nM; that for “HlgC (from UniProt Q07227 30-315) (natural protein)” was 229 nM.

The term Kd denotes the equilibrium constant for the complex coming apart. Low values mean higher affinity, high ones lower affinity.
